Data as given in patent publication US5889151A (priority 1989, dated 1999).

B1: Human gamma IFN: human gamma interferon, recognized by a different receptor (protein, UniProt P01579 24-161, looked up)
Interferon gamma: QDPYVKEAENLKKYFNAGHSDVADNGTLFLGILKNWKEESDRKIMQSQIVSFYFKLFKNFKDDQSIQKSVETIKEDMNVKFFNSNKKKRDDFEKLTNYSVTDLNVQRKAIHELIQVMAELSPAAKTGKRKRSQMLFRG

Experiments:
coronavirus = conditions: infected with a coronavirus; 37% with placebo; cited from earlier work
rhinoviruses = conditions: clinical trials; cited from earlier work
mouse parental BTG cells = assay type: cell-based
human Wish cells = assay type: cell-based
transfected 10B H7 clone = assay type: cell-based, mouse

Row | Molecule | volunteers developing the symptoms of a cold (coronavirus) | protection of volunteers infected with different rhinoviruses (rhinoviruses) | Antiviral activities of interferon preparations tested on BTG (mouse parental BTG cells) | antiviral activity (in words) (mouse parental BTG cells) | Antiviral activities of interferon preparations tested on WISH (human Wish cells) | Antiviral activities of interferon preparations tested on 10BH7 (transfected 10B H7 clone) | antiviral activity (in words) (transfected 10B H7 clone)
1 | alpha interferon | 6% | 100% |  |  |  |  | 
2 | B1 |  |  | < 1 × 10^3 units/ml | no antiviral activity | 20 × 10^6 units/ml | < 1 × 10^3 units/ml | no antiviral activity
